The values that follow are results of earlier work, collected in paper PMC4276913.

By Kd is commonly meant a measure of binding affinity in units of concentration.

This series addresses Ubc13 (Homo sapiens) (UniProt P61088).
Chain of UniProt P61088 (P61088 whole entry): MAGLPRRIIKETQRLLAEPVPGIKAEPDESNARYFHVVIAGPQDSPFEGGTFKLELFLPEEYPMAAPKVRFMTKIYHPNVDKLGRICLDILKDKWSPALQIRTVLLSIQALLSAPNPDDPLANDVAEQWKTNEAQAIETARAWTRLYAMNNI

Consider Mms2 (from UniProt Q15819), for which the Kd is 49 nM.
